Experimental data as given in IntAct's records for PubMed 31262713.

B1: Protein Niban 2 (Homo sapiens), Q96TA1 (parent)
chain: MGDVLSTHLDDARRQHIAEKTGKILTEFLQFYEDQYGVALFNSMRHEIEGTGLPQAQLLWRKVPLDERIVFSGNLFQHQEDSKKWRNRFSLVPHNYGLVLYENKAAYERQVPPRAVINSAGYKILTSVDQYLELIGNSLPGTTAKSGSAPILKCPTQFPLILWHPYARHYYFCMMTEAEQDKWQAVLQDCIRHCNNGIPEDSKVEGPAFTDAIRMYRQSKELYGTWEMLCGNEVQILSNLVMEELGPELKAELGPRLKGKPQERQRQWIQISDAVYHMVYEQAKARFEEVLSKVQQVQPAMQAVIRTDMDQIITSKEHLASKIRAFILPKAEVCVRNHVQPYIPSILEALMVPTSQGFTEVRDVFFKEVTDMNLNVINEGGIDKLGEYMEKLSRLAYHPLKMQSCYEKMESLRLDGLQQRFDVSSTSVFKQRAQIHMREQMDNAVYTFETLLHQELGKGPTKEELCKSIQRVLERVLKKYDYDSSSVRKRFFREALLQISIPFLLKKLAPTCKSELPRFQELIFEDFARFILVENTYEEVVLQTVMKDILQAVKEAAVQRKHNLYRDSMVMHNSDPNLHLLAEGAPIDWGEEYSNSGGGGSPSPSTPESATLSEKRRRAKQVVSVVQDEEVGLPFEASPESPPPASPDGVTEIRGLLAQGLRPESPPPAGPLLNGAPAGESPQPKAAPEASSPPASPLQHLLPGKAVDLGPPKPSDQETGEQVSSPSSHPALHTTTEDSAGVQTEF

Columns and labels:
[1] = variants of: B1; details: with keap1_human KEAP1, Q14145
keap1_human KEAP1, Q14145, sequence (Q14145 whole entry): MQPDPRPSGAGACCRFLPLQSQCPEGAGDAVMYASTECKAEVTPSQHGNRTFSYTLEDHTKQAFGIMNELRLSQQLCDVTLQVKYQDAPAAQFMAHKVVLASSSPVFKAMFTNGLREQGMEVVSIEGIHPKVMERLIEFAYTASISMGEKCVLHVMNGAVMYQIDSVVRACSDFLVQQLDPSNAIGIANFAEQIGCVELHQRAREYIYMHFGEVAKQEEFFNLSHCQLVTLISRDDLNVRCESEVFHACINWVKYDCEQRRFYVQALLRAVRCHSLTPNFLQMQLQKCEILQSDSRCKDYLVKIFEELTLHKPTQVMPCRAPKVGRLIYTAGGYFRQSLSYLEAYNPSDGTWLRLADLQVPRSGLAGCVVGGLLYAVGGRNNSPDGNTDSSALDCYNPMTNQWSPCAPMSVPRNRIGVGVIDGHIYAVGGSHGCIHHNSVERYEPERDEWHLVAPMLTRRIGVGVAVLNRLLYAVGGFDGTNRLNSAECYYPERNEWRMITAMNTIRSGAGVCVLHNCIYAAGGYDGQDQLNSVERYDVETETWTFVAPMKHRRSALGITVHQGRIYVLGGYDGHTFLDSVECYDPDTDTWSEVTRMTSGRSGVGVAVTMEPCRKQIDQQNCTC

[2] = variants of: B1; details: with keap1_human KEAP1, Q14145; remark: listed apart in the source

Row | Variant | effect of a mutation on the interaction [1] | effect of a mutation on the interaction [2]
1 | G710A | with no effect | disrupting interaction strength
2 | E718A;T719A | disrupting interaction strength | –
3 | G710A;E718A;T719A | disrupting interaction strength | disrupting interaction strength
